# According to patent publication US10301596B2, “Method of repairing damaged chondrocytes via low-dose irradiation” (KOREA INSTITUTE OF RADIOLOGICAL & MEDICAL SCIENCES, priority 2013, dated 2019):
# B1: epidermal growth factor (protein, UniProt P01133 23-1207, looked up)
# Pro-epidermal growth factor: PQHWSCPEGTLAGNGNSTCVGPAPFLIFSHGNSIFRIDTEGTNYEQLVVDAGVSVIMDFHYNEKRIYWVDLERQLLQRVFLNGSRQERVCNIEKNVSGMAINWINEEVIWSNQQEGIITVTDMKGNNSHILLSALKYPANVAVDPVERFIFWSSEVAGSLYRADLDGVGVKALLETSEKITAVSLDVLDKRLFWIQYNREGSNSLICSCDYDGGSVHISKHPTQHNLFAMSLFGDRIFYSTWKMKTIWIANKHTGKDMVRINLHSSFVPLGELKVVHPLAQPKAEDDTWEPEQKLCKLRKGNCSSTVCGQDLQSHLCMCAEGYALSRDRKYCEDVNECAFWNHGCTLGCKNTPGSYYCTCPVGFVLLPDGKRCHQLVSCPRNVSECSHDCVLTSEGPLCFCPEGSVLERDGKTCSGCSSPDNGGCSQLCVPLSPVSWECDCFPGYDLQLDEKSCAASGPQPFLLFANSQDIRHMHFDGTDYGTLLSQQMGMVYALDHDPVENKIYFAHTALKWIERANMDGSQRERLIEEGVDVPEGLAVDWIGRRFYWTDRGKSLIGRSDLNGKRSKIITKENISQPRGIAVHPMAKRLFWTDTGINPRIESSSLQGLGRLVIASSDLIWPSGITIDFLTDKLYWCDAKQSVIEMANLDGSKRRRLTQNDVGHPFAVAVFEDYVWFSDWAMPSVMRVNKRTGKDRVRLQGSMLKPSSLVVVHPLAKPGADPCLYQNGGCEHICKKRLGTAWCSCREGFMKASDGKTCLALDGHQLLAGGEVDLKNQVTPLDILSKTRVSEDNITESQHMLVAEIMVSDQDDCAPVGCSMYARCISEGEDATCQCLKGFAGDGKLCSDIDECEMGVPVCPPASSKCINTEGGYVCRCSEGYQGDGIHCLDIDECQLGEHSCGENASCTNTEGGYTCMCAGRLSEPGLICPDSTPPPHLREDDHHYSVRNSDSECPLSHDGYCLHDGVCMYIEALDKYACNCVVGYIGERCQYRDLKWWELRHAGHGQQQKVIVVAVCVVVLVMLLLLSLWGAHYYRTQKLLSKNPKNPYEESSRDVRSRRPADTEDGMSSCPQPWFVVIKEHQDLKNGGQPVAGEDGQAADGSMQPTSWRQEPQLCGMGTEQGCWIPVSSDKGSCPQVMERSFHMPSYGTQTLEGGVEKPHSLLSANPLWQQRALDPPHQMELTQ
# modifications: Pro-epidermal growth factor
# notes: agent known to induce dedifferentiation of chondrocytes
# Tested on: chondrocytes
# Experiment: Levels of differentiation- and inflammation-related proteins (type II collagen, Sox-9, I-κB, COX-2), Western blot in chondrocytes
# Format: cell-based
# Conditions: 10 ng/mL EGF, 10 nM PMA or 1 μM RA
# Experimental: First, the chondrocytes derived from joints were cultured in a DMEM medium according to a known method (E. H. Hong, et al., J. Biol. Chem. 285:1283-1295, 2010). Then, the cultured chondrocytes were inoculated into culture dishes at a density of 5×10^4 cells/cm^2, which were irradiated with 0 cGy, 0.5 cGy, 1.0 cGy, 1.5 cGy, and 2.0 cGy LDR using a ^137Cs-ray source (KIRMS, Korea), and the levels of type II collagen or Sox-9 protein, which are cartilage-specific differentiation marker proteins, and I-κB or COX-2 protein, which are inflammation-related proteins, were determined via Western blot analysis, and the transcriptional activity of Sox-9 protein and NF-κB, which is affected by I-κB, were determined by reporter gene assay (FIGS. 1a and b). […]
# Finally, chondrocytes were transfected with 3 μg of GFP-labeled S83A α-catenin, FLAG-labeled S33A β-catenin, or wild type γ-catenin, reacted with or without treatment with 5 μM or 10 μM BAY 11-7082 for 24 hours, and the levels of I-κB and COX-2 proteins were determined via Western blot analysis (FIG. 5g). […]
molecule,measurement,value
B1,"pathological changes induced by soluble factor (type II collagen, Sox-9, COX-2 proteins)",inhibition of expression of type II collagen and Sox-9 proteins and induction of COX-2 protein expression
